The values below come from patent publication US5786145A, “Oligonucleotide competitors for binding of HIV RRE to REV protein and assays for screening inhibitors of this binding” (Medical Research Council, priority 1995, dated 1998).

Entries after “also recorded” stand apart in the source; their conditions may differ. Where two headings read alike, the source gives them in different places. Bounds are passed on as bounds.

The test system of data set [1] is rev protein. The data set can be described thus: Saturation filter binding of rev to labelled RNA transcripts. Details: species or system HIV-1. The settings on record: for rev binding, result in words: saturation filter binding, 0 to 10 nM rev. Here is the method:
Rev protein was expressed and purified as described (33) or further purified by chromatography on Heparin-Sepharose. Rev was applied to Heparin columns in a buffer containing 200 mM NaCl/50mM Tris-HCl pH8.0/1 mM DTT/0.1 mM EDTA 0.1% Triton X-100 and eluted in buffer containing 2M NaCl. After gel filtration on Superose 6 (prep grade) columns equilibrated with 200 mM NaCl/50 mM Tris-HCl pH8.0/1 mM DTT/0.1 mM EDTA, the rev protein appeared homogeneous on SDS-polyacrylamide gels and free of RNA contaminants. Rev concentrations were determined by amino acid analysis of the purified protein.
DNA inserts containing RRE-related sequences were cloned between the EcoRI (5') and HindIII (3') sites of pGEM 1, either by cloning PCR products or by cloning annealed pairs of synthetic oligonucleotides. RNA transcripts for binding experiments were prepared by transcription of HindIII cut plasmids using T7 RNA polymerase and purified by gel electrophoresis. These transcripts carry a 5' extension of 15 nucleotides contributed by the vector and an extra A residue at the 3' end from the HindIII site, as described above.
For filter binding assays, each reaction mixture contained 20 pg of uniformly labelled RNA probe (approximately 500 cpm/pg RNA), […] sonicated salmon sperm DNA, […] yeast tRNA, 40 units RNasin (Promega) in […] TK buffer (43 mM Tris-HCl pH8.0, 50 mM KCl). Incubation was at 4° C. for 15 minutes in the presence of 0 to 10 nM purified rev protein. To measure binding, each reaction mixture was applied under gentle vacuum to a 0.45 um Millipore filter which had been pre-wetted with TK buffer. The filters were washed with […] TK buffer, dried, and radioactivity counted by liquid scintillation.
Filter binding assays contained 20 pg uniformly labelled RNA probe (500 dpm per pg RNA), 1 μg salmon sperm DNA, 0.45 μg yeast tRNA and 40 units RNasin (Promega) in 500 μl buffer containing 43 mM Tris-HCl pH 8.0, 50 mM KCl. Mutations in the purine-rich "bubble" sequence (numbered as shown in FIG. 2) were introduced into the R33 stem-loop structure (FIG. 3d) by site-directed mutagenesis.

Data set [2] concerns rev protein. The data set can be described thus: Competition filter binding against labelled RRE RNA (FIG. 11). Details: species or system HIV-1. The conditions noted are these: 17 nM rev, 0.5 pM labelled RRE RNA; read-out: D1/2, competitor concentration reducing rev binding to labelled RRE RNA by 50%. As for the experimental part: Unlabelled RRE RNA was an effective competitor and reduced rev binding to the labelled RRE RNA by 50% of the initial value with a D1/2 =2 nM. The short R33 transcript was also an effective competitor and reduced rev binding with D1/2 =8 nM. The mutations in the "bubble" either reduce or abolish specific rev binding.
Filter binding reactions contained 17 nM rev, 0.5 pM labelled RRE RNA and between 0-100 nM unlabelled competitor RNA. Empty squares, RRE RNA competitor; filled circles, R33 RNA competitor; filled triangles, R34 RNA competitor; empty triangles, R35 RNA competitor.

Data set [3] deals with T1, HIV-1 Rev (Human immunodeficiency virus 1, UniProt P04618 P04618:1-116). The data set can be described thus: filter; 50 mM KCl, 4 C; 21% bound at 10 nM rev. The settings on record: tags: none stated; heparin-Sepharose and Superose 6 purified; chain copies: oligomer (tetramer likely; about 4 per RBC6, 6-8 per full-length RRE at 50 mM KCl) stated; label: 32P uniform.
Data set [4] addresses T1, HIV-1 Rev. Briefly: filter; 50 mM KCl, 4 C; 15% bound at 10 nM rev. The conditions noted are these: tags: none stated; heparin-Sepharose and Superose 6 purified; chain copies: oligomer (tetramer likely; about 4 per RBC6, 6-8 per full-length RRE at 50 mM KCl) stated; label: 32P uniform.
The target of data set [5] is T1, HIV-1 Rev. The data set can be described thus: competition; D1/2 vs labelled RRE RNA, 17 nM rev. The conditions noted are these: tags: none stated, heparin-Sepharose and Superose 6 purified, chain copies: oligomer (tetramer likely; about 4 per RBC6, 6-8 per full-length RRE at 50 mM KCl) stated, label: 32P uniform.
Data set [6] deals with T1, HIV-1 Rev. The data set can be described thus: filter; 50 mM KCl, 4 C; 40% bound at 10 nM rev. The conditions noted are these: tags: none stated, heparin-Sepharose and Superose 6 purified, chain copies: oligomer (tetramer likely; about 4 per RBC6, 6-8 per full-length RRE at 50 mM KCl) stated, label: 32P uniform.
Data set [7] has as its target T1, HIV-1 Rev. The data set can be described thus: filter; 50 mM KCl, 4 C; 18% bound at 10 nM rev. The settings on record: tags: none stated; heparin-Sepharose and Superose 6 purified; chain copies: oligomer (tetramer likely; about 4 per RBC6, 6-8 per full-length RRE at 50 mM KCl) stated; label: 32P uniform.
Data set [8] concerns the target T1, HIV-1 Rev. The data set can be described thus: filter; 50 mM KCl, 4 C; 20% bound at 10 nM rev. The settings on record: tags: none stated; heparin-Sepharose and Superose 6 purified; chain copies: oligomer (tetramer likely; about 4 per RBC6, 6-8 per full-length RRE at 50 mM KCl) stated; label: 32P uniform.
For data set [9], the target named is T1, HIV-1 Rev. Briefly: filter; 50 mM KCl, 4 C; 17% bound at 10 nM rev. The conditions noted are these: tags: none stated; heparin-Sepharose and Superose 6 purified; chain copies: oligomer (tetramer likely; about 4 per RBC6, 6-8 per full-length RRE at 50 mM KCl) stated; label: 32P uniform.
For data set [10], the target named is T1, HIV-1 Rev. The data set can be described thus: filter. The conditions noted are these: tags: none stated, heparin-Sepharose and Superose 6 purified, chain copies: oligomer (tetramer likely; about 4 per RBC6, 6-8 per full-length RRE at 50 mM KCl) stated, label: 32P uniform.
For data set [11], the target named is T1, HIV-1 Rev. Briefly: filter; normal rev binding. The settings on record: tags: none stated; heparin-Sepharose and Superose 6 purified; chain copies: oligomer (tetramer likely; about 4 per RBC6, 6-8 per full-length RRE at 50 mM KCl) stated; label: 32P uniform; stem-loop with purine-rich bubble.
For data set [12], the target named is T1, HIV-1 Rev. The data set can be described thus: filter; same affinity as full-length RRE. The conditions noted are these: tags: none stated; heparin-Sepharose and Superose 6 purified; chain copies: oligomer (tetramer likely; about 4 per RBC6, 6-8 per full-length RRE at 50 mM KCl) stated; label: 32P uniform; stem-loop with purine-rich bubble.
Data set [13] concerns the target T1, HIV-1 Rev. Briefly: competition; competes with same affinity as RBC6. The settings on record: tags: none stated; heparin-Sepharose and Superose 6 purified; chain copies: oligomer (tetramer likely; about 4 per RBC6, 6-8 per full-length RRE at 50 mM KCl) stated; RNA three-way junction stabilising bubble (all strands RNA).
The target of data set [14] is T1, HIV-1 Rev. Briefly: filter; 50 mM KCl, 4 C; 35% bound at 10 nM rev. The settings on record: tags: none stated; heparin-Sepharose and Superose 6 purified; chain copies: oligomer (tetramer likely; about 4 per RBC6, 6-8 per full-length RRE at 50 mM KCl) stated; label: 32P uniform; stem-loop with altered bubble.
Data set [15] addresses T1, HIV-1 Rev. The data set can be described thus: filter; shortest T7 transcript with full affinity. The settings on record: tags: none stated; heparin-Sepharose and Superose 6 purified; chain copies: oligomer (tetramer likely; about 4 per RBC6, 6-8 per full-length RRE at 50 mM KCl) stated; label: 32P uniform; stem-loop with purine-rich bubble.
Data set [16] deals with T1, HIV-1 Rev. The data set can be described thus: filter; bubble not formed. The conditions noted are these: tags: none stated; heparin-Sepharose and Superose 6 purified; chain copies: oligomer (tetramer likely; about 4 per RBC6, 6-8 per full-length RRE at 50 mM KCl) stated; label: 32P uniform.
Where [17] appears, read: Table I, filter binding, 20 pg labelled RNA probe, 50 mM KCl, read-out: Kd.
Setting [18] is: stem-loop with purine-rich bubble on 9-bp stem.

Regarding “R33: stem-loop of residues 33 to 63, A56 deleted, inserted on top of a stem containing 9 base pairs; wild-type bubble (GGGAGACCGGAAUUCUGGGCGCAGUGUCAUUGACGCUGCGGUACAGAAUUCCGGCA; chemistry not given here)”, the “% RNA bound (10 nM rev)” value in data set [1] (Table I, 50 mM KCl) turned out to be 40%. Also, the Kd in [1] (setting [17]) was 3 nM. Also, the “rev binding, result in words” value in data set [1] was “Normal rev binding”. The IC50 in data set [2] came to 8 nM.

As for “R34 (GGGAGACCGGAAUUCUGCGCAGUGUCAUUGACGCUGCGGUACAGAAUUCCGGC; chemistry not given here)”, in [1] (Table I, 50 mM KCl), the “% RNA bound (10 nM rev)” value was determined as 3%. Besides, in [1], the “rev binding, result in words” value is listed as “abolished specific rev binding; also recorded: does not bind rev with measurable affinity”. Besides, the IC50 in data set [2] is greater than 250 nM.

For “R35 (GGGAGACCGGAAUUCUGGCGCAGUGUCAUUGACGCUGCGGUACAGAAUUCCGGCA; chemistry not given here)”, in data set [1] (Table I, 50 mM KCl), the “% RNA bound (10 nM rev)” value came out at 35%. In addition, the Kd in data set [1] (setting [17]) amounted to 4 nM; in [1] (saturation filter binding of T7 transcripts, read-out: Kd for rev binding), 4 nM. Besides, the “rev binding, result in words” value in data set [1] was “reduced rev binding slightly”. Further, the IC50 in data set [2] came to 16 nM.

B1: R55 (ssRNA)
RNA: GGGAGACCGGAAUUCUAGGCGCAGUGUCAUUGACGCUGCGGUAUAGAAUUCCGGCA
modifications: [-]
As for B1, the Kd in [3] amounted to 4 nM.

B2: R39 (ssRNA)
RNA: GGGAGACCGGAAUUCAGGGCGCAGUGUCAUUGACGCUGCGGUACUGAAUUCCGGCA
modifications: [-]
Molecule B2 had a Kd in data set [4] of 8 nM.

B3: R33 (ssRNA)
RNA: GGGAGACCGGAAUUCUGGGCGCAGUGUCAUUGACGCUGCGGUACAGAAUUCCGGCA
The molecule B3 yielded an IC50 in data set [5] (setting [18]) of 8 nM. The Kd in [6] (setting [18]) was found to be 3 nM.

B4: R42 (ssRNA)
RNA: GGGAGACCGGAAUUCUGGGCCCAGUGUCAUUGACGCUGGGGUACAGAAUUCCGGCA
modifications: [none]
B4 came in with a Kd in data set [7] of 8 nM.

B5: R52 (ssRNA)
RNA: GGGAGACCGGAAUUCUGGGCGCAGUGUCAUUGACGCUGCGGCACAGAAUUCCGGCA
modifications: [-]
As to B5, the dissociation constant Kd in [7] is 5 nM.

B6: R50 (ssRNA)
RNA: GGGAGACCGGAAUUCUGGACGCAGUGUCAUUGACGCUGCGGUACAGAAUUCCGGCA
modifications: [-]
Molecule B6 showed a Kd in data set [8] of 5 nM.

B7: R57 (ssRNA)
RNA: GGGAGACCGGAAUUCUGGGCACAGUGUCAUUGACGCUGUGGUACAGAAUUCCGGCA
modifications: [-]
In [6], B7 had a Kd of 3 nM.

B8: R54 (ssRNA)
RNA: GGGAGACCGGAAUUCCGGGCGCAGUGUCAUUGACGCUGCGGUACGGAAUUCCGGCA
modifications: [-]
B8 gave a dissociation constant Kd in data set [9] of 6 nM.

As to GGGAGACCGGAAUUCUGGGCGCAGUGUCAUUGACGCUGCGGUACAGGCA (ssRNA) [R22 (A56 deleted)], the Kd in data set [10] (stem-loop with purine-rich bubble) is 1.73 nM.

On to GGGAGACCGGAAUUCUGGGCGCAGCGUCAUUGACACUGCGGUACAGGCA (ssRNA) [R30 (upper stem antisense)], for which the binding result in [11] was “binds”.

B9: RRE fragment 26-92 (ssRNA)
RNA: GGGAGACCGGAAUUCAGCACUAUGGGCGCAGUGUCAUUGACGCUGACGGUACAGGCCAGACAAUUAUUGUCUGGUAUAGUGCA
For the molecule B9, the binding result in data set [12] is “binds”.

B10: TWJ-U (structured_DNA)
DNA 1: GCACUAUGGGCGCAGC
DNA 2: GCUGCGGUACAGGCCAGA
DNA 3: UCUGGUAUAGUGC
For the molecule B10, in data set [13], the binding result is “binds”.

B11: R35 (dG35) (ssRNA)
RNA: GGGAGACCGGAAUUCUGGCGCAGUGUCAUUGACGCUGCGGUACAGAAUUCCGGCA
The molecule B11 returned an IC50 in data set [5] (stem-loop with altered bubble) of 16 nM. This molecule also displayed a Kd in data set [14] of 4 nM.

Regarding GGGAGACCGGAAUUCUGGGCGCUUCGGCGGUACAGA (ssRNA) [R38 (upper stem-loop replaced by CUUCGG)], in data set [10] (hairpin with purine-rich bubble), the affinity, expressed as Kd, was 1.73 nM.

Consider GGGAGACCGGAAUUCUGGGCGCAGUGUCAUUGACGCUGACGGUACAGGCA (ssRNA) [R19 (RRE 33-66)], for which the Kd in data set [15] was 1.73 nM.

For the molecule GGGAGACCGGAAUUCUGGGCGCAGUGUCAAUGACGCUGACGGUACAGGCA (ssRNA) [R29 (apex loop antisense)], in data set [11], the binding result was “binds”.

B12: RRE fragment 1-96 (ssRNA)
RNA: GGGAGACCGGAAUUCCCUUGGGUUCUUGGGAGCAGCAGGAAGCACUAUGGGCGCAGUGUCAUUGACGCUGACGGUACAGGCCAGACAAUUAUUGUCUGGUAUAGUGCAACA
B12: in [12], the binding result is on record as “binds”.

B13: RRE fragment 26-72 (ssRNA)
RNA: GGGAGACCGGAAUUCAGCACUAGGGCGCAGUGUCAUUGACGCUGAGGGUACAGGCCAGACAAUUAUA
B13: in data set [16], the binding result is recorded as “no binding”.
